Reference: the supplement of paper PMC9732359
± gives the uncertainty stated by the source.

Assay: protein stability index of a GFP-peptide fusion (yeast GPS) (PSI 1-4); higher = more stable; sorted into four equal gates, so the index is relative within each strain
How it was run: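 The protein stability index of a peptide was calculated by multiplying its read frequency in each gate by that gate's number and adding the products. The peptides were tiled 17-residue stretches of yeast proteins, fused downstream of GFP on a Cherry-expressing plasmid and carried in yeast as a pooled library. Mid-log cultures in leucine-free medium were sorted into four equal gates by GFP/Cherry ratio, and each gate's plasmids were PCR-amplified and Illumina-sequenced.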

Sequence | protein stability index (doa10∆) | protein stability index (pdr5∆) | protein stability index (san1∆) | protein stability index (ubr1∆)
ERRVLLSAPLSKELRAQ [RPL26B] | 2.87 ± 0.07 | 2.9 ± 0.047 | 2.89 ± 0.055 | 2.79 ± 0.043
AFIDERASDLRMTIRTR [RRP43] | 1.81 ± 0.18 | 1.57 ± 0.11 | 1.24 ± 0.25 | 1.39 ± 0.12
NKTKAVDNTVPSTTLFN [YOR098C/NUP1] | 2.84 ± 0.087 | 2.58 ± 0.067 | 3.04 ± 0.054 | 3.15 ± 0.055
AADVSAVDAKQLAQIRQ [YML103C/NUP188] | 2.25 ± 0.071 | 2.94 ± 0.073 | 3.25 ± 0.072 | 2.5 ± 0.057
YATQVKTDNTVDKFDFY [RPT3] | 2.39 ± 0.05 | 2.63 ± 0.055 | 2.49 ± 0.052 | 2.62 ± 0.042
MLGRAGRPRYDTFGEGI [BRR2] | 3.25 ± 0.12 | 2.81 ± 0.14 | 3.15 ± 0.087 | 3.31 ± 0.15
KELDQELIIDPLFKKAL [BRN1] | 3.23 ± 0.071 | 3.07 ± 0.073 | 3.13 ± 0.11 | 3.07 ± 0.052
VSTKTNEYRLAFYQVTP [RPL22A] | 1.86 ± 0.038 | 2.19 ± 0.04 | 2.6 ± 0.056 | 2.48 ± 0.048
AFEAELSNIPLLLITHH [ARP9] | 1.49 ± 0.071 | 1.68 ± 0.072 | 1.64 ± 0.089 | 1.58 ± 0.066
RLRKRVTIIPLDKIYTR [SMC2] | 2 ± 0.073 | 1.66 ± 0.095 | 1.84 ± 0.071 | 1.36 ± 0.051
